Data set [1] is described as follows: Isoelectric point by two-dimensional electrophoresis. Format: physicochemical. The method, then:
The analyses were performed using an Autoflex III MALDI-TOF-TOF unit with smartbeam laser (Bruker Daltonics). The samples were evaluated in positive mode. The method was calibrated using BSA with standard, thereby covering a range of 15,000 to 70,000 Da. In order to determine the isoelectric point of the UPO variants, 8 μg of pure enzyme were subjected to two-dimensional electrophoresis. These experiments were carried out at the Proteomic and Genomic Service of the Biological Research Centre (CIB-CSIC, Spain).

Another data set can be described thus: Optimum pH for ABTS. In kind it is biochemical.
The nature of the next data set: Optimum pH for DMP. In kind it is biochemical.
Data set [2] can be described thus: Conversion of 1-naphthol into 1,4-naphthoquinone, HPLC. The note with it: versus PaDa-I. Format: biochemical. The method, then: Each reaction was performed in triplicate and were stopped with HCl (pH<1) at different times (between 60 and 600 s). Inset: polymeric colorimetric products derived from 1.4-naphthoquinone, 1: PaDa-I and 2: JaWa.
This effect can also be observed at first glance, since the polymeric products produced in the reaction with the PaDa-I variants (SEQ ID NO: 18) (due to non-enzymatic quinone regrouping processes) are coloured (FIG. 4). There are hypotheses in literature on the possibility that UPO is similar to CPO in the existence of different sites with peroxidase activity in its structure. To suppress these alternative peroxidation pathways, the structure of the AaeUPO1 crystal was closely examined and a variant was built by mean of directed mutagenesis in Trp24 (FIG. 5A), a highly oxidable residue, found on the protein surface, using the PaDa-I (SEQ ID NO: 18) and JaWa (SEQ ID NO: 24) variants as templates, as described in the section on materials and methods.

Data set [3] is described as follows: Stability at high acetonitrile concentrations. In kind it is physicochemical. The note with it: 5 hours of incubation, 50% to 100% co-solvent, 20° C.; versus PaDa-I. The method, then:
FIG. 2 Biochemical characteristics of the variants of the invention. A) Spectroscopic characteristics of the PaDa-I (thin line) and JaWa (thick line) mutants at rest. AU, arbitrary units. B) Thermostability analysis (T50) of the PaDa-I (black circles) and JaWa (white circles) mutants. The experiments were carried out using culture supernatants and each point represents the average value and standard deviation of three individual experiments. C) Stability of the PaDa-I (black bars) and JaWa (grey bars) mutants at high acetonitrile concentrations. The stabilities were determined after 5 hours of incubation of the enzyme in increasing concentrations of the co-solvent (from 50% to 100%) at 20° C. in 10 mM pH 7.0 potassium phosphate buffer. […] The error bars indicate standard deviations.

Data set [4] in a line: Dual colorimetric HTS, naphthalene-Fast Red (peroxygenase activity on microplate). The following applies: parental PaDa-I; S. cerevisiae microcultures. Format: biochemical. The method, then:
The mother plates were centrifuged (Eppendorf 5810R centrifuge, Germany) for 10 minutes at 3,500 RPM and 4° C. 20 μL of supernatant were transferred from these mother plates to two replica daughter plates with the help of a Freedom EVO liquid handling robot (Tecan, Switzerland).
The plates were briefly agitated and initial absorbance was measured at 469 nm and 510 nm, respectively, using a plate reader for such purpose ([…]ax Plus 384, Molecular Devices, USA). […] The plates were kept at room temperature until they turned orange (DMP) or red (naphthol-Fast Red), at which time the absorbance was newly measured. The values were normalised against the parental of each plate. In order to rule out false positives, two re-screenings were carried out, in addition to a third re-screening wherein kinetic stability was determined (T50) (P. Molina-Espeja, et al. Appl. Environ. Microbiol. 2014. 80, 3496-3507).

Data set [5] in a line: Propranolol transformation reaction analysed by HPLC-PDA. Format: biochemical. The note with it: absence of ascorbic acid. The method, then: FIG. 13 Chromatogram showing the enzyme reactions.
(§1) The reactions were analysed by means of chromatography in reverse phase (HPLC). The equipment was composed of a tertiary pump (Varian-Agilent Technologies, USA) coupled to an autosampler (Merck Millipore, MA, USA); for the separation, a Zorbax Eclipse plus C18 column (15 cm×4.6 cm) at 40° C. was used and the detection was performed using a photodiode detector (PDA) (Varian, Agilent Technologies, USA). The mobile phase selected was a gradient from 10% methanol and 90% ddH2O (in both cases with 0.1% of acetic acid) up to 90% methanol and 10% ddH2O at a flow rate of 0.8 mL/min. The reaction was quantified at 280 nm (based on HPLC standards). […] The standard deviations were less than 5% in all cases.

Data set [6] in a line: Turnover with 5′-hydroxypropranolol as substrate, HPLC. Format: biochemical. The note with it: 0.03 μM enzyme, 0.4 mM 5′-hydroxypropranolol, 2 mM H2O2, absence of ascorbic acid. The method, then:
FIG. 14 Turnover rates of AaeUPO, JaWa and SoLo. […] The disappearance of the product 5′-hydroxypropranolol can be observed due to the formation of its corresponding quinone by means of the peroxidase activity of the enzyme.
as §1

Data set [7] is described as follows: Total turnover number (TTN) for synthesis of 5′-hydroxypropranolol from propranolol. Format: biochemical. The following applies: 0.03 μM enzyme, propranolol, 2 mM H2O2 added every 10 minutes. The method, then:
FIG. 15 Calculation of the total turnover number (TTN) of AaeUPO and SoLo.
as §1

B1: JaWa: PaDa-I variant with added mutations G241D and R257K, SEQ ID NO: 24 (protein)
chain: MKYFPLFPTLVYAVGVVAFPDYASLAGLSQQELDAIIPTLEAREPGLPPGPLENSSAKLVNDEAHPWKPLRPGDIRGPCPGLNTLASHGYLPRNGVATPAQIINAVQEGFNFDNQAAIFATYAAHLVDGNLITDLLSIGRKTRLTGPDPPPPASVGGLNEHGTFEGDASMTRGDAFFGNNHDFNETLFEQLVDYSNRFGGGKYNLTVAGELRFKRIQDSIATNPNFSFVDFRFFTAYGETTFPANLFVDGRRDDGQLDMDAARSFFQFSRMPDDFFRAPSPRSDTGVEVVVQAHPMQPGKNVGKINSYTVDPTSSDFSTPCLMYEKFVNITVKSLYPNPTVQLRKALNTNLDFLFQGVAAGCTQVFPYGRD
Turning to B1, the pI in data set [1] is 5.3. Besides, the “Optimum pH for ABTS” value in “Optimum pH for ABTS” was 4.0. Further, the “Optimum pH for DMP” value in “Optimum pH for DMP” was 6.0. Also, the “reduction in the ratio 1,4-naphthoquinone:1-naphthol” value in data set [2] was roughly 1.5 fold. Further, the “stability in the presence of acetonitrile” value in [3] was “higher stability in the presence of acetonitrile”. The “peroxygenase activity on microplate relative to parental” value in [4] is given as “doubled that of its parental”. Moreover, the “regioselectivity against 5′-hydroxypropranolol” value in data set [5] (0.03 μM enzyme, 4 mM propranolol, 2 mM H2O2) was found to be 99%. The “amount of 5′-hydroxypropranolol produced” value in data set [5] (compared among AaeUPO, PaDa-I, JaWa, SoLo) is listed as “produce the largest amount of 5′-hydroxypropranolol”. The “5′-hydroxypropranolol maintained without oxidising” value in data set [6] is “oxidise practically the entire product”. In data set [7] (4 mM ascorbic acid), the “TTNs, With ascorbic acid” value is 48,000. The “TTNs, Without ascorbic acid” value in data set [7] (absence of ascorbic acid) is 15,000.
